This is an account of results in publication doi:10.1101/2021.02.27.433148.

Data set [1] concerns the target murine norovirus (MNV) CR10 P-domain (murine norovirus, strain CR10) (UniProt Q80J94). Briefly: native MS.
The target in data set [2] is human norovirus GII.4 Saga P-domain (native, Asn373) (human norovirus GII.4 Saga). The data set is described as follows: native MS.
Data set [3] concerns the target human norovirus GII.4 Saga P-domain, fully deamidated at position 373 (iso-aspartate) (human norovirus GII.4 Saga).
In data set [4] the target is murine norovirus (MNV) CW1 P-domain (murine norovirus, strain CW1) (UniProt Q80J94). The data set is described as follows: SEC. On the technique in general: Size exclusion chromatography separates by hydrodynamic size, large species first.
For data set [5] the target is unchanged. The data set is described as follows: SEC. The source holds these as a separate data set.
Data set [6] has the same target. Briefly: NMR titration.
The target is the same in data set [7]. The data set is described as follows: NMR titration. The source holds these as a separate data set.
The subject of a further data set is Q80J94. Briefly: SEC.

Where two headings read alike, the source gives them in different places.

A word on the Kd: it is a measure of binding affinity in units of concentration. Lower therefore signals tighter binding. What is called stoichiometry N is a count of units in the complex or per binding partner. Take “murine norovirus (MNV) CR10 P-domain (from UniProt Q80J94 229-531) (domain or fragment)”: in data set [1], the Kd amounted to 32 µM and the stoichiometry N was 2.
As to “human norovirus GII.4 Saga P-domain (native, Asn373) (domain or fragment)”, in data set [2], the stoichiometry N came out at 2.
As a reminder, the koff is a measure of how fast the partners let go of each other. A higher koff goes with a short-lived complex. In turn, “human norovirus GII.4 Saga P-domain point mutant N373Q (domain or fragment)” gave a koff in data set [3] of 1.5e-06 s⁻¹.
The term kon denotes the rate constant with which the complex forms. In turn, “murine norovirus (MNV) CW1 P-domain (from UniProt Q80J94 225-541) (domain or fragment)” gave a stoichiometry N in data set [4] of 2. In data set [5], this substance registered a Kd of 40 µM and a stoichiometry N of 2. Further, in data set [6], the Kd was found to be 12.5 µM, the koff worked out at 0.035 s⁻¹ and the on-rate (kon) is 2800 M⁻¹ s⁻¹. For the same substance, in data set [7], the Kd worked out at 31 µM and the dimer half-life t1/2 was found to be 17 s.
murine norovirus (MNV) CW1 P-domain: the “kex (printed as dissociation rate constant kex, from SEC peak tailing)” value in the data set on Q80J94 was found to be 0.03 s⁻¹.
